Results taken from the FLAb antibody collection (doi:10.1101/2023.12.08.570889).

B1: unnamed (protein)
chain 1: QVQLVQSGAEVKKPGASVKVSCKASGYIFSNYWIQWVRQAPGQGLEWMGEILPGSGSTEYTENFKDRVTMTRDTSTSTVYMELSSLRSEDTAVYYCARLYYGDTPIIYFDYWGQGTLVTVSS
chain 2: DIQMTQSPSSLSASVGDRVTITCGASENIYGALNWYQQKPGKAPKLLIYGATNLADGVPSRFSGSGSGTDFTLTISSLQPEDFATYYCQNVLNTPLTFGQGTKVEIK
B2: unnamed (protein)
chain 1: QVQLVQSGAEVKKPGASVKVSCKASGYIFSNYWIQWVRQAPGQGLEWMGEILPGSGSTEYTENFKDRVTMTRDTSTSTVYMELSSLRSEDTAVYYCARLRYGDTPYIYFDYWGQGTLVTVSS
chain 2: DIQMTQSPSSLSASVGDRVTITCGASENIYGALNWYQQKPGKAPKLLIYGATNLADGVPSRFSGSGSGTDFTLTISSLQPEDFATYYCQNVLNTPLTFGQGTKVEIK
B3: unnamed (protein)
chain 1: QVQLVQSGAEVKKPGASVKVSCKASGYIFSNYWIQWVRQAPGQGLEWMGEILPGSGSTEYTENFKDRVTMTRDTSTSTVYMELSSLRSEDTAVYYCARYYYGDTPIIYFDYWGQGTLVTVSS
chain 2: DIQMTQSPSSLSASVGDRVTITCGASENIYGALNWYQQKPGKAPKLLIYGATNLADGVPSRFSGSGSGTDFTLTISSLQPEDFATYYCQNVLNTPLTFGQGTKVEIK
B4: unnamed (protein)
chain 1: QVQLVQSGAEVKKPGASVKVSCKASGYTFTSYWIQWVRQAPGQGLEWMGEIKPGSGYTEYTENFKDRVTMTRDTSTSTVYMELSSLRSEDTAVYYCARYRYGDTPIIYFDYWGQGTLVTVSS
chain 2: DIQMTQSPSSLSASVGDRVTITCGASENIYGALNWYQQKPGKAPKLLIYGATNLADGVPSRFSGSGSGTDFTLTISSLQPEDFATYYCQNVLNTPLTFGQGTKVEIK
B5: unnamed (protein)
chain 1: QVQLVQSGAEVKKPGASVKVSCKASGYTFTSYWIQWVRQAPGQGLEWMGEIHPGSGETEYTENFKDRVTMTRDTSTSTVYMELSSLRSEDTAVYYCARYRYGDTPIIYFDYWGQGTLVTVSS
chain 2: DIQMTQSPSSLSASVGDRVTITCGASENIYGALNWYQQKPGKAPKLLIYGATNLADGVPSRFSGSGSGTDFTLTISSLQPEDFATYYCQNVLNTPLTFGQGTKVEIK
B6: unnamed (protein)
chain 1: QVQLVQSGAEVKKPGASVKVSCKASGYTFTSYWIQWVRQAPGQGLEWMGEIQPGSGYTEYTENFKDRVTMTRDTSTSTVYMELSSLRSEDTAVYYCARYRYGDTPIIYFDYWGQGTLVTVSS
chain 2: DIQMTQSPSSLSASVGDRVTITCGASENIYGALNWYQQKPGKAPKLLIYGATNLADGVPSRFSGSGSGTDFTLTISSLQPEDFATYYCQNVLNTPLTFGQGTKVEIK
B7: unnamed (protein)
chain 1: QVQLVQSGAEVKKPGASVKVSCKASGYTFTSYWIQWVRQAPGQGLEWMGEIHPGSGYTEYTENFKDRVTMTRDTSTSTVYMELSSLRSEDTAVYYCARYRYGDTPDIYFDYWGQGTLVTVSS
chain 2: DIQMTQSPSSLSASVGDRVTITCGASENIYGALNWYQQKPGKAPKLLIYGATNLADGVPSRFSGSGSGTDFTLTISSLQPEDFATYYCQNVLNTPLTFGQGTKVEIK
B8: unnamed (protein)
chain 1: QVQLVQSGAEVKKPGASVKVSCKASGYIFSNYWIQWVRQAPGQGLEWMGEILPGSGSTEYTENFKDRVTMTRDTSTSTVYMELSSLRSEDTAVYYCARHYYGDTPDIYFDYWGQGTLVTVSS
chain 2: DIQMTQSPSSLSASVGDRVTITCGASENIYGALNWYQQKPGKAPKLLIYGATNLADGVPSRFSGSGSGTDFTLTISSLQPEDFATYYCQNVLNTPLTFGQGTKVEIK
B9: unnamed (protein)
chain 1: QVQLVQSGAEVKKPGASVKVSCKASGYTFTSYWIQWVRQAPGQGLEWMGEIHPGSGETEYTENFKDRVTMTRDTSTSTVYMELSSLRSEDTAVYYCARYRYGDTPYIYFDYWGQGTLVTVSS
chain 2: DIQMTQSPSSLSASVGDRVTITCGASENIYGALNWYQQKPGKAPKLLIYGATNLADGVPSRFSGSGSGTDFTLTISSLQPEDFATYYCQNVLNTPLTFGQGTKVEIK
B10: unnamed (protein)
chain 1: QVQLVQSGAEVKKPGASVKVSCKASGYTFTSYWIQWVRQAPGQGLEWMGEIHPGSGYTEYTENFKDRVTMTRDTSTSTVYMELSSLRSEDTAVYYCARYRYGDTPFIYFDYWGQGTLVTVSS
chain 2: DIQMTQSPSSLSASVGDRVTITCGASENIYGALNWYQQKPGKAPKLLIYGATNLADGVPSRFSGSGSGTDFTLTISSLQPEDFATYYCQNVLNTPLTFGQGTKVEIK
B11: unnamed (protein)
chain 1: QVQLVQSGAEVKKPGASVKVSCKASGYTFTSYWIQWVRQAPGQGLEWMGEIKPGSGYTEYTENFKDRVTMTRDTSTSTVYMELSSLRSEDTAVYYCARHEYGDTPIIYFDYWGQGTLVTVSS
chain 2: DIQMTQSPSSLSASVGDRVTITCGASENIYGALNWYQQKPGKAPKLLIYGATNLADGVPSRFSGSGSGTDFTLTISSLQPEDFATYYCQNVLNTPLTFGQGTKVEIK
B12: unnamed (protein)
chain 1: QVQLVQSGAEVKKPGASVKVSCKASGYTFTSYWIQWVRQAPGQGLEWMGEIHPGSGYTEYTENFKDRVTMTRDTSTSTVYMELSSLRSEDTAVYYCARYYYGDTPYIYFDYWGQGTLVTVSS
chain 2: DIQMTQSPSSLSASVGDRVTITCGASENIYGALNWYQQKPGKAPKLLIYGATNLADGVPSRFSGSGSGTDFTLTISSLQPEDFATYYCQNVLNTPLTFGQGTKVEIK
B13: unnamed (protein)
chain 1: QVQLVQSGAEVKKPGASVKVSCKASGYIFSNYWIQWVRQAPGQGLEWMGEILPGSGSTEYTENFKDRVTMTRDTSTSTVYMELSSLRSEDTAVYYCARYYYGDTPYIYFDYWGQGTLVTVSS
chain 2: DIQMTQSPSSLSASVGDRVTITCGASENIYGALNWYQQKPGKAPKLLIYGATNLADGVPSRFSGSGSGTDFTLTISSLQPEDFATYYCQNVLNTPLTFGQGTKVEIK
B14: unnamed (protein)
chain 1: QVQLVQSGAEVKKPGASVKVSCKASGYTFTSYWIQWVRQAPGQGLEWMGEIHPGSGYTEYTENFKDRVTMTRDTSTSTVYMELSSLRSEDTAVYYCARLRYGDTPIIYFDYWGQGTLVTVSS
chain 2: DIQMTQSPSSLSASVGDRVTITCGASENIYGALNWYQQKPGKAPKLLIYGATNLADGVPSRFSGSGSGTDFTLTISSLQPEDFATYYCQNVLNTPLTFGQGTKVEIK
B15: unnamed (protein)
chain 1: QVQLVQSGAEVKKPGASVKVSCKASGYTFTSYWIQWVRQAPGQGLEWMGEIHPGSGYTEYTENFKDRVTMTRDTSTSTVYMELSSLRSEDTAVYYCARYRYGDTPIIYFDYWGQGTLVTVSS
chain 2: DIQMTQSPSSLSASVGDRVTITCGASENIYGALNWYQQKPGKAPKLLIYGATNLADGVPSRFSGSGSGTDFTLTISSLQPEDFATYYCQNVLNTPLTFGQGTKVEIK
B16: unnamed (protein)
chain 1: QVQLVQSGAEVKKPGASVKVSCKASGYIFSNYWIQWVRQAPGQGLEWMGEILPGSGSTEYTENFKDRVTMTRDTSTSTVYMELSSLRSEDTAVYYCARYEYGDTPIIYFDYWGQGTLVTVSS
chain 2: DIQMTQSPSSLSASVGDRVTITCGASENIYGALNWYQQKPGKAPKLLIYGATNLADGVPSRFSGSGSGTDFTLTISSLQPEDFATYYCQNVLNTPLTFGQGTKVEIK
B17: unnamed (protein)
chain 1: QVQLVQSGAEVKKPGASVKVSCKASGYIFSNYWIQWVRQAPGQGLEWMGEILPGSGSTEYTENFKDRVTMTRDTSTSTVYMELSSLRSEDTAVYYCARYEYGDTPYIYFDYWGQGTLVTVSS
chain 2: DIQMTQSPSSLSASVGDRVTITCGASENIYGALNWYQQKPGKAPKLLIYGATNLADGVPSRFSGSGSGTDFTLTISSLQPEDFATYYCQNVLNTPLTFGQGTKVEIK
B18: unnamed (protein)
chain 1: EVQLLESGGGLVQPGGSLRLSCAASGFTFSQYGMDWVRQAPGKGLEWVSGIGPSGGSTVYADSVKGRFTISRDNSKNTLYLQMNSLRAEDTAVYYCTRDGPWYYYGFDVWGQGTTVTVSS
chain 2: DIQMTQSPSSLSASVGDRVTITCQASQDISNYLNWYQQKPGKAPKLLIYDASNLETGVPSRFSGSGSGTDFTFTISSLQPEDIATYYCQQADSFPVTFGGGTKVEIK
B19: unnamed (protein)
chain 1: EVQLLESGGGLVQPGGSLRLSCAASGFTFSQYGMDWVRQAPGKGLEWVSGIGPSGGSTVYADSVKGRFTISRDNSKNTLYLQMNSLRAEDTAVYYCTRGGPSYYYAFDVWGQGTTVTVSS
chain 2: DIQMTQSPSSLSASVGDRVTITCQASQDISNYLNWYQQKPGKAPKLLIYDASNLETGVPSRFSGSGSGTDFTFTISSLQPEDIATYYCQQADSFPVTFGGGTKVEIK

What was measured:
C5, P01031 = assay: Kd (SPR)
FXI = assay: Kd (SPR)

| Binder | Kd (C5, P01031) | Kd (FXI) |
| --- | --- | --- |
| B1 | 324 nM |  |
| B2 | 2510 nM |  |
| B3 | 126 nM |  |
| B4 | 507 nM |  |
| B5 | 251 nM |  |
| B6 | 622 nM |  |
| B7 | 597 nM |  |
| B8 | 1700 nM |  |
| B9 | 399 nM |  |
| B10 | 1190 nM |  |
| B11 | 293 nM |  |
| B12 | 267 nM |  |
| B13 | 127 nM |  |
| B14 | 3600 nM |  |
| B15 | 2300 nM |  |
| B16 | 275 nM |  |
| B17 | 915 nM |  |
| B18 |  | 46 nM |
| B19 |  | 1370 nM |
